Measured values reported in patent publication US20060088890A1.

What was measured:
[1] = target: angiotensin converting enzyme (ACE) (human) (UniProt P12821); test: indirect immunofluorescence flow cytometry, UT7 cells, BB9 at 20 µg/mL; grade = proportion of positive cells
[2] = target: angiotensin converting enzyme (ACE) (human) (UniProt P12821); test: indirect immunofluorescence flow cytometry, HL60 cells, BB9 at 20 µg/mL; grade = proportion of positive cells
[3] = target: angiotensin converting enzyme (ACE) (human) (UniProt P12821); test: indirect immunofluorescence flow cytometry, K562 cells, BB9 at 20 µg/mL; grade = proportion of positive cells
[4] = target: angiotensin converting enzyme (ACE) (human) (UniProt P12821); test: indirect immunofluorescence flow cytometry, KG-1 cells, BB9 at 20 µg/mL; grade = proportion of positive cells
[5] = target: angiotensin converting enzyme (ACE) (human) (UniProt P12821); test: indirect immunofluorescence flow cytometry, MG63 cells, BB9 at 20 µg/mL; grade = proportion of positive cells
[6] = target: angiotensin converting enzyme (ACE) (human) (UniProt P12821); test: indirect immunofluorescence flow cytometry, RC2A cells, BB9 at 20 µg/mL; grade = proportion of positive cells
[7] = target: angiotensin converting enzyme (ACE) (human) (UniProt P12821); test: indirect immunofluorescence flow cytometry, U937 cells, BB9 at 20 µg/mL; grade = proportion of positive cells
[8] = target: angiotensin converting enzyme (ACE) (human) (UniProt P12821); test: indirect immunofluorescence flow cytometry, MCF-7 cells, BB9 at 20 µg/mL; grade = proportion of positive cells
[9] = target: angiotensin converting enzyme (ACE) (human) (UniProt P12821); test: indirect immunofluorescence flow cytometry, HEL-DR cells, BB9 at 20 µg/mL; grade = proportion of positive cells
[10] = target: angiotensin converting enzyme (ACE) (human) (UniProt P12821); test: indirect immunofluorescence flow cytometry, Hi MEG cells, BB9 at 20 µg/mL; grade = proportion of positive cells
[11] = target: angiotensin converting enzyme (ACE) (human) (UniProt P12821); test: indirect immunofluorescence flow cytometry, MEG-01 cells, BB9 at 20 µg/mL; grade = proportion of positive cells
[12] = target: angiotensin converting enzyme (ACE) (human) (UniProt P12821); test: indirect immunofluorescence flow cytometry, Nalm-6 cells, BB9 at 20 µg/mL; grade = proportion of positive cells
[13] = target: angiotensin converting enzyme (ACE) (human) (UniProt P12821); test: indirect immunofluorescence flow cytometry, dermal fibroblasts, BB9 at 20 µg/mL; grade = proportion of positive cells

Sequence of UniProt P12821 (P12821 30-1306): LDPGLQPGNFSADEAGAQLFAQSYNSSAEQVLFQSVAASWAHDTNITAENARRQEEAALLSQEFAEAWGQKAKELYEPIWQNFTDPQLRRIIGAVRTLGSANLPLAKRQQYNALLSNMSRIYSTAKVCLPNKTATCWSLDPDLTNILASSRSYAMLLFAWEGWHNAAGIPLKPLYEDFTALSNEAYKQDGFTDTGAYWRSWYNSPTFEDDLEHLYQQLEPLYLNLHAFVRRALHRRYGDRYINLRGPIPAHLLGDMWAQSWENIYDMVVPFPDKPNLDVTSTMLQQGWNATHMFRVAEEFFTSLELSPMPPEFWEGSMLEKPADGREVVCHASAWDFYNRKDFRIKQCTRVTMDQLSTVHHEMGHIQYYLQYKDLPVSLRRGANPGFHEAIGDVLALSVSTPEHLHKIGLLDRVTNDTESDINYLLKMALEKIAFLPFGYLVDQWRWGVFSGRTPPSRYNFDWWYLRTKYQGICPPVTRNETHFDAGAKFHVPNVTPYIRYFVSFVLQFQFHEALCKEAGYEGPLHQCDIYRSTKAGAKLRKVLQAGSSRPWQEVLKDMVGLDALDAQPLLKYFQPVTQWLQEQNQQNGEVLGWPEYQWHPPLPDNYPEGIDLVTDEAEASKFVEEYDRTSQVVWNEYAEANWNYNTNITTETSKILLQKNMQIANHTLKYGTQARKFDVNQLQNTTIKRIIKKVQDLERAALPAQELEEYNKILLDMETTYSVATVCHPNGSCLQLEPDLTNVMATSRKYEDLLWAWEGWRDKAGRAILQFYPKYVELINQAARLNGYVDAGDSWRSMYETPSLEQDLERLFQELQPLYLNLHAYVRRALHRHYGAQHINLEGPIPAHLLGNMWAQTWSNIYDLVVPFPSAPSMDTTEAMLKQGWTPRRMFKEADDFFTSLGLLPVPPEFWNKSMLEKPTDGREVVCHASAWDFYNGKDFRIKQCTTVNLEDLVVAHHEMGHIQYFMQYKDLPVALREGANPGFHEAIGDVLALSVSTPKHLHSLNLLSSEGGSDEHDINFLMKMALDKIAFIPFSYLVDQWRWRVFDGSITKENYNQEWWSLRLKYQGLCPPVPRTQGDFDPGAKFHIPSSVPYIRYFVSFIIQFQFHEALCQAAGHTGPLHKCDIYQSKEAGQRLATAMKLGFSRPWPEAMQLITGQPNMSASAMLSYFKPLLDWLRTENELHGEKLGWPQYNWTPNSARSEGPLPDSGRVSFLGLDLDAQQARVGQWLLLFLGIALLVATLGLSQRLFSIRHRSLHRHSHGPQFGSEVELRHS

proportion of BB9 positive cells [1]: 35 to 80%
proportion of BB9 positive cells [2]: 35 to 80%
proportion of BB9 positive cells [3]: 35 to 80%
proportion of BB9 positive cells [4]: 5 to 35%
proportion of BB9 positive cells [5]: 35 to 80%
proportion of BB9 positive cells [6]: 5 to 35%
proportion of BB9 positive cells [7]: 5 to 35%
proportion of BB9 positive cells [8]: 5 to 35%
proportion of BB9 positive cells [9]: 35 to 80%
proportion of BB9 positive cells [10]: 5 to 35%
proportion of BB9 positive cells [11]: 35 to 80%
proportion of BB9 positive cells [12]: 5 to 35%
proportion of BB9 positive cells [13]: 80 to 100%
Substance: monoclonal antibody BB9
